Where two headings read alike, the source gives them in different places.
Key:
[1] = target: T1, P-TEFb/AFF4/Tat(1-57) core super elongation complex (CDK9/CycT1/AFF4/Tat) (Homo sapiens (CDK9, CycT1, AFF4)?; HIV-1 (Tat)) (UniProt P50750+O60563+Q9UHB7+P04608); settings: CITED mutational data (apparently), cited from earlier work
[2] = target: T1, P-TEFb/AFF4/Tat(1-57) core super elongation complex (CDK9/CycT1/AFF4/Tat) (Homo sapiens (CDK9, CycT1, AFF4)?; HIV-1 (Tat)); experiment: EMSA; settings: 250x yeast tRNA

Sequence	Kd ([1]; [15-18], CAAA loop) [nM]	Kd ([1]; wild-type UGGG loop) [nM]	Kd ([2]; 0.5 nM RNA, 0-90 nM complex, 6% native gel) [nM]	Kd ([2]; TAR preincubated with 10 nM Palbociclib) [nM]
GGCAGAUCUGAGCCCAAAAGCUCUCUGCC [HIV-1 TAR loop mutant UGGG to CAAA]	> 10			
GGCAGAUCUGAGCCUGGGAGCUCUCUGCC [HIV-1 TAR]		0.23	0.34	35.6
